The labels stand for the following.
B1: IgG1-F354 (antibody)
heavy: QVQLQESGPGLVKPSETLSLTCAVSGHSISHDHAWSWVRQPPGEGLEWIGFISYSGITNYNPSLQGRVTISRDNSKNTLYLQMNSLRAEDTAVYYCARSLARTTAMDYWGEGTLVTVSSASTKGPSVFPLAPSSKSTSGGTAALGCLVKDYFPEPVTVSWNSGALTSGVHTFPAVLQSSGLYSLSSVVTVPSSSLGTQTYICNVNHKPSNTKVDKKVEPKSCDKTHTCPPCPAPELLGGPKVFLFPPKPKDTLYISRTPEVTCVVVDVSHEDPEVKFNWYVDGVEVHNAKTKPREEQYNSTYRVVSVLQPLHQDWLNGKEYKCKVSNKALPAPIEKTISKAKGQPREPQVYTLPPSRDELTKNQVSLTCLVKGFYPSDIAVEWESNGQPENNYKTTPPVLDSDGSFFLYSKLTVDKSRWQQGNVFSCSVLHEALHYHYTQKSLSLSP
light: not shown
notes: EU numbering; copies: 2 + 2
B2: IgG1-F422 (antibody)
heavy: B1 heavy with K241S, Q309A, P310V, Q313H, E384A, L430M
light: not shown
notes: EU numbering; copies: 2 + 2
B3: IgG1-F411 (antibody)
heavy: B1 heavy with K241S, Y254M, P259V, Q309N, P310V
light: not shown
notes: EU numbering; copies: 2 + 2
B4: IgG1-F425 (antibody)
heavy: B1 heavy with K241S, Y254M, P259A, Q309T, L311E
light: not shown
notes: EU numbering; copies: 2 + 2
B5: IgG1-F388 (antibody)
heavy: B1 heavy with K241S, Q309T, L311A, L430M
light: not shown
notes: EU numbering; copies: 2 + 2
B6: IgG1-F395 (antibody)
heavy: B1 heavy with T258E, Q309T, L430M
light: not shown
notes: EU numbering; copies: 2 + 2
B7: IgG1-F389 (antibody)
heavy: B1 heavy with K241S, Y254W, Q309T, L311E, L430Y
light: not shown
notes: EU numbering; copies: 2 + 2
B8: IgG1-F423 (antibody)
heavy: B1 heavy with K241S, Q309W, P310V, Q313H, L430M
light: not shown
notes: EU numbering; copies: 2 + 2
B9: IgG1-F400 (antibody)
heavy: B1 heavy with D272F, N288E, Q309T, Q313A, L430I
light: not shown
notes: EU numbering; copies: 2 + 2
B10: IgG1-F401 (antibody)
heavy: B1 heavy with D272F, N288E, Q309T, P389E, L430I
light: not shown
notes: EU numbering; 'N431Y' as printed, probably N434Y; copies: 2 + 2
B11: IgG1-F391 (antibody)
heavy: B1 heavy with K241S, Y254W, Q309T, L311A, L430Y
light: not shown
notes: EU numbering; copies: 2 + 2
B12: IgG1-F374 (antibody)
heavy: B1 heavy with Y254W, T258E, Q309T, L430Y
light: not shown
notes: EU numbering; copies: 2 + 2
B13: IgG1-F394 (antibody)
heavy: B1 heavy with P310V, Q313A, L430I
light: not shown
notes: EU numbering; copies: 2 + 2
B14: IgG1-F415 (antibody)
heavy: B1 heavy with K241S, Y254M, P259V, N288E, Q309A, P310V
light: not shown
notes: EU numbering; copies: 2 + 2
B15: IgG1-F390 (antibody)
heavy: B1 heavy with K241S, Y254W, Q309T, L311D, L430Y
light: not shown
notes: EU numbering; copies: 2 + 2
B16: IgG1-F375 (antibody)
heavy: B1 heavy with Y254W, N288E, Q309T, L430Y
light: not shown
notes: EU numbering; copies: 2 + 2
B17: IgG1-F363 (antibody)
heavy: B1 heavy with K241S, Y254M, P259V, P310V, Q313A
light: not shown
notes: EU numbering; copies: 2 + 2
B18: IgG1-F386 (antibody)
heavy: B1 heavy with K241S, Q309T, L311E, L430M
light: not shown
notes: EU numbering; copies: 2 + 2
B19: IgG1-F372 (antibody)
heavy: B1 heavy with Y254W, Q309T, L430Y
light: not shown
notes: EU numbering; copies: 2 + 2
B20: IgG1-F416 (antibody)
heavy: B1 heavy with K241S, Y254M, P259V, Q309A, P310V, P389E
light: not shown
notes: EU numbering; copies: 2 + 2
B21: IgG1-F387 (antibody)
heavy: B1 heavy with K241S, Q309T, L311D, L430M
light: not shown
notes: EU numbering; copies: 2 + 2
B22: IgG1-F413 (antibody)
heavy: B1 heavy with K241S, Y254M, P259V, Q309P, P310V
light: not shown
notes: EU numbering; copies: 2 + 2
B23: IgG1-F404 (antibody)
heavy: B1 heavy with K241S, Y254M, P259A, P310V, L311P
light: not shown
notes: EU numbering; 'M928L' read as M428L; copies: 2 + 2
B24: IgG1-F364 (antibody)
heavy: B1 heavy with K241S, Y254M, P259V, P310V, Q313A, N327G
light: not shown
notes: EU numbering; copies: 2 + 2
B25: IgG1-F360 (antibody)
heavy: B1 heavy with K241S, Y254M, P259V, P310V, L430V
light: not shown
notes: EU numbering; copies: 2 + 2
B26: IgG1-F403 (antibody)
heavy: B1 heavy with K241S, Y254M, P259V, Q309A, P310V, Y436W
light: not shown
notes: EU numbering; copies: 2 + 2
B27: IgG1-F362 (antibody)
heavy: B1 heavy with K241S, Y254M, P259V, P310V, N327G
light: not shown
notes: EU numbering; copies: 2 + 2
B28: IgG1-F402 (antibody)
heavy: B1 heavy with K241S, Y254M, P259V, P310V, Y436W
light: not shown
notes: EU numbering; copies: 2 + 2
B29: IgG1-F377 (antibody)
heavy: B1 heavy with Y254W, Q309P, P310V, L430Y
light: not shown
notes: EU numbering; copies: 2 + 2
B30: IgG1-F359 (antibody)
heavy: B1 heavy with K241S, Y254M, P259V, P310V, L430I
light: not shown
notes: EU numbering; copies: 2 + 2
B31: IgG1-F356 (antibody)
heavy: B1 heavy with D272F, Q309T, L311E, P389E, L430M
light: not shown
notes: EU numbering; 'Y308P' as printed, probably V308P; copies: 2 + 2
B32: IgG1-F397 (antibody)
heavy: B1 heavy with D272F, P310V, Q313A, P389E, L430I
light: not shown
notes: EU numbering; 'T370Q' as printed, probably T307Q; copies: 2 + 2
B33: IgG1-F418 (antibody)
heavy: B1 heavy with Q309P, P310V, N327G, L430Y
light: not shown
notes: EU numbering; copies: 2 + 2
B34: IgG1-F379 (antibody)
heavy: B1 heavy with Y254W, T258E, Q309T, Q313A, L430Y
light: not shown
notes: EU numbering; copies: 2 + 2
B35: IgG1-F420 (antibody)
heavy: B1 heavy with K241S, Q309A, P310V, Q313H, P389E, L430M
light: not shown
notes: EU numbering; copies: 2 + 2
B36: IgG1-F358 (antibody)
heavy: B1 heavy with P310V, L430M
light: not shown
notes: EU numbering; copies: 2 + 2
B37: IgG1-F396 (antibody)
heavy: B1 heavy with D272F, N288E, P310V, Q313A, L430I
light: not shown
notes: EU numbering; copies: 2 + 2
B38: IgG1-F412 (antibody)
heavy: B1 heavy with K241S, Y254M, P259V, Q309G, P310V
light: not shown
notes: EU numbering; copies: 2 + 2
B39: IgG1-F381 (antibody)
heavy: B1 heavy with K241S, Y254M, P259V, Q309A, P310V, Q313A
light: not shown
notes: EU numbering; copies: 2 + 2
B40: IgG1-F424 (antibody)
heavy: B1 heavy with Y254M, P259A, Q309T
light: not shown
notes: copies: 2 + 2
B41: IgG1-F376 (antibody)
heavy: B1 heavy with T258E, D272F, N288E, Q309T, L430M
light: not shown
notes: EU numbering; copies: 2 + 2
B42: IgG1-F369 (antibody)
heavy: B1 heavy with K241S, P259V, P310V, L430I
light: not shown
notes: EU numbering; copies: 2 + 2
B43: IgG1-F409 (antibody)
heavy: B1 heavy with K241S, Y254M, P259V, Q309T, P310V, P389E
light: not shown
notes: EU numbering; copies: 2 + 2
B44: IgG1-F367 (antibody)
heavy: B1 heavy with E260H, D272F, Q313A, L430M
light: not shown
notes: EU numbering; copies: 2 + 2
B45: IgG1-F407 (antibody)
heavy: B1 heavy with K241S, Y254M, P259V, P310V, L311R
light: not shown
notes: EU numbering; copies: 2 + 2
B46: IgG1-F410 (antibody)
heavy: B1 heavy with K241S, Y254M, P259V, Q309H, P310V
light: not shown
notes: EU numbering; copies: 2 + 2
B47: IgG1-F408 (antibody)
heavy: B1 heavy with K241S, Y254M, P259V, N288E, Q309T, P310V
light: not shown
notes: EU numbering; copies: 2 + 2
B48: IgG1-F380 (antibody)
heavy: B1 heavy with Y254W, T258E, N288E, Q309T, L430Y
light: not shown
notes: EU numbering; copies: 2 + 2
B49: IgG1-F368 (antibody)
heavy: B1 heavy with D272F, Q309T, N327G, E384A, L430I
light: not shown
notes: EU numbering; copies: 2 + 2
B50: IgG1-F406 (antibody)
heavy: B1 heavy with K241S, Y254M, P259A, P310V, L311R
light: not shown
notes: EU numbering; copies: 2 + 2
B51: IgG1-F392 (antibody)
heavy: B1 heavy with N288E, Q309T, L430I
light: not shown
notes: EU numbering; copies: 2 + 2
B52: IgG1-F365 (antibody)
heavy: B1 heavy with K241S, Y254M, P259V, V307A, P310V
light: not shown
notes: EU numbering; copies: 2 + 2
B53: IgG1-F373 (antibody)
heavy: B1 heavy with Y254W, Q309T, Q313A, L430Y
light: not shown
notes: EU numbering; copies: 2 + 2
B54: IgG1-F399 (antibody)
heavy: B1 heavy with D272F, N288E, L430I
light: not shown
notes: EU numbering; copies: 2 + 2
B55: IgG1-F405 (antibody)
heavy: B1 heavy with K241S, Y254M, P259V, P310V, L311P
light: not shown
notes: EU numbering; copies: 2 + 2

The source of these data is patent publication US20200199241A1 (Chugai, published 2020).

Positions count from the first letter of the chain named. In names and notes the source's numbering stands.

For this experiment, the target named is T1, human FcRn (soluble human FcRn complexed with β2-microglobulin) (human, UniProt P61769 21-119, limits assumed).
T1 construct: also called hFcRn
T1 sequence (chain, as listed by the source limits assumed, chain 1 of 2): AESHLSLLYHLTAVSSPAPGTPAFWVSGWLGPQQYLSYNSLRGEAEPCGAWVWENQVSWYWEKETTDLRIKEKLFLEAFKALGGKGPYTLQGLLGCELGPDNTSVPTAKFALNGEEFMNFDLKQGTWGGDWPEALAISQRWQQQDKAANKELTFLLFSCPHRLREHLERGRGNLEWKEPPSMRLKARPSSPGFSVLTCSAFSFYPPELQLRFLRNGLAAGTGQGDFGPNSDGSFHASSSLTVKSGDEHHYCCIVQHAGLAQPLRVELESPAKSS
T1 sequence (P61769 21-119 limits assumed, chain 2 of 2): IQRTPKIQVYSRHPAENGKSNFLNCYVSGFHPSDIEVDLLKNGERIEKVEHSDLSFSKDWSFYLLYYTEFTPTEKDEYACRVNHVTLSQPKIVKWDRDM
Description: SPR, pH 7.0.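 Further: antibodies captured on a Protein L sensor chip with human FcRn injected as analyte, KD calculated from fitted association and dissociation rate constants.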
Turning to B1, the Kd was found to be 0.028 µM.
Next, B2: 0.18 µM; B3: 0.13 µM.
B4 displayed a Kd of 0.08 µM.
Next, B5: 0.07 µM; B6: 0.024 µM; B7: 0.017 µM.
In turn, B8 displayed a Kd of 0.084 µM.
The result for B9 reads 0.0061 µM.
Next, B10: 0.0069 µM; B11: 0.036 µM; B12: 0.012 µM.
The result for B13 reads 0.053 µM; that for B14, 0.056 µM; that for B15, 0.068 µM.
B16 displayed a Kd of 0.0055 µM.
The result for B17 reads 0.041 µM.
With B18, the Kd worked out at 0.032 µM.
The result for B19 reads 0.013 µM; that for B20, 0.094 µM.
Next, B21: 0.15 µM; B22: 0.12 µM.
B23 returned a Kd of 0.094 µM.
Consider B24, for which the affinity, expressed as Kd, was 0.035 µM.
B25: the Kd came out at 1.3 µM.
In turn, B26 displayed a dissociation constant Kd of 0.051 µM.
The molecule B27 had a Kd of 0.054 µM.
The result for B28 reads 0.023 µM; that for B29, 0.13 µM.
B30 returned a Kd of 0.42 µM.
Next, B31: 0.034 µM; B32: 0.045 µM; B33: 0.62 µM.
As to B34, the Kd was determined as 0.009 µM.
The molecule B35 gave a dissociation constant Kd of 0.15 µM.
Next, B36: 0.1 µM.
With B37, the affinity, expressed as Kd, was 0.02 µM.
In turn, B38 gave a Kd of 0.088 µM.
The result for B39 reads 0.11 µM.
Next, B40: 0.094 µM; B41: 0.0096 µM; B42: 0.075 µM.
The result for B43 reads 0.2 µM.
Take B44: the Kd turned out to be 0.015 µM.
The result for B45 reads 0.16 µM.
In turn, B46 returned an equilibrium dissociation constant (Kd) of 0.22 µM.
For the molecule B47, binding was characterised by a dissociation constant (Kd) of 0.25 µM.
Regarding B48, the Kd is 0.0056 µM.
For the molecule B49, the Kd came out at 0.02 µM.
B50 registered a Kd of 0.15 µM.
Next, B51: 0.0069 µM; B52: 0.051 µM; B53: 0.011 µM.
Take B54: the Kd is 0.0065 µM.
B55 yielded a Kd of 0.17 µM.
